This note sets out measurements from patent publication US20210113587A1 (ADC THERAPEUTICS, published 2021).

Experiment [1] concerns the target T1, human recombinant soluble CD25 ectodomain (human, UniProt P01589 22-240).
T1 construct: extracellular domain; Immobilised on a Biacore CM3 chip; also called sCD25 ectodomain; human sCD25 ectodomain
T1 sequence (looked up): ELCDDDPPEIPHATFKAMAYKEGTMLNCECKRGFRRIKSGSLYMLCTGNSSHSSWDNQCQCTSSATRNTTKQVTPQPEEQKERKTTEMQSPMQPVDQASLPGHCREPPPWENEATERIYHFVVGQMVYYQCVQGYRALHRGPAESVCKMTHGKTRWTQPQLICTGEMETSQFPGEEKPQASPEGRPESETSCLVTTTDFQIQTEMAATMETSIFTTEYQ
Put plainly: SPR (Biacore CM3 chip), sCD25 ectodomain immobilised; mean of runs. On the procedure:
(§1) The equilibrium dissociation constant, KD, was calculated for both molecules using BIAevaluation ® software.

The target of experiment [2] is T1, human recombinant soluble CD25 …. Put plainly: SPR (Biacore CM3 chip), sCD25 ectodomain immobilised; run 3. The method, then: as §1
(SPR reads the build-up and loss of mass on a sensor chip optically.)

For experiment [3] the target is unchanged. As to the kind of experiment: SPR (Biacore CM3 chip), sCD25 ectodomain immobilised; run 6. The method, then: as §1
Experiment [4] has the same target. As to the kind of experiment: SPR (Biacore CM3 chip), sCD25 ectodomain immobilised; run 2. On the procedure: as §1
Experiment [5] shares this target. As to the kind of experiment: SPR (Biacore CM3 chip), sCD25 ectodomain immobilised; run 4. The method, then: as §1
For experiment [6], the target named is T2, human CD25 on concanavalin-A activated CD25-positive human PBMCs and CD25-expressing lymphoma cell lines (human, UniProt P01589 22-272).
T2 construct: whole, on cells; also called IL2R-α; Interleukin-2 receptor-α
T2 sequence (looked up): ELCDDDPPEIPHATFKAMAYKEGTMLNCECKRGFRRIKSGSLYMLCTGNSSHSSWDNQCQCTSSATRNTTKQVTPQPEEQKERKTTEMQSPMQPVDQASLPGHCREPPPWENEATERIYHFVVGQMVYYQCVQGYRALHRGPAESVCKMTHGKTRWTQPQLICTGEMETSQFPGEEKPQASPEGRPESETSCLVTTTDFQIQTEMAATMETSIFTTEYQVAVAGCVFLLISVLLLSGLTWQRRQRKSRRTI
Put plainly: flow cytometry, MFI on concanavalin-A activated CD25-positive human PBMCs (CD25-PE gate). On the procedure: FIG. 1. […] Isotype, non-targeting-ADC-FITC was used as the non-binding ADC control. The EC₅₀ was ≈0.03 μg/ml (180 pM).
(In general: In flow cytometry, cells or beads pass a laser one at a time.)

The target of experiment [7] is T1, human recombinant soluble CD25 …. As to the kind of experiment: SPR (Biacore CM3 chip), sCD25 ectodomain immobilised; run 5. On the procedure:
as §1

The target is the same in experiment [8]. As to the kind of experiment: SPR (Biacore CM3 chip), sCD25 ectodomain immobilised; run 1. On the procedure: as §1

B1: ADCT-301 (antibody, V domains shown)
VH: QVQLVQSGAEVKKPGSSVKVSCKASGGTFSRYIINWVRQAPGQGLEWMGRIIPILGVENYAQKFQGRVTITADKSTSTAYMELSSLRSEDTAVYYCARKDWFDYWGQGTLVTVSS
VL: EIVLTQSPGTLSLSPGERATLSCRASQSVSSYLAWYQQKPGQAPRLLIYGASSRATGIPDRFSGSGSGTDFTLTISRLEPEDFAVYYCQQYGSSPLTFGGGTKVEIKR
modifications: pyrrolobenzodiazepine (PBD) warhead attached by a cleavable linker, drug-antibody ratio 2.3±0.3; attachment residues not stated
notes: also called HuMax-TAC-E of WO2014/57119
Regarding B1, the Kd – broadly, the equilibrium constant for the complex coming apart – in experiment [1] came out at 20.9 pM; in experiment [2], 20.7 pM; in experiment [3], 24.4 pM; in experiment [4] it was 20.5 pM; in experiment [5] it was 17.9 pM; in experiment [7] it was 21.2 pM. For the same molecule, in experiment [8], the Kd is 20.5 pM. For the same molecule, the EC50 (as a rule, the midpoint of the concentration-response curve) in experiment [6] is ~180 pM.

B2: HuMax®-TAC (antibody, V domains shown)
VH: B1 VH
VL: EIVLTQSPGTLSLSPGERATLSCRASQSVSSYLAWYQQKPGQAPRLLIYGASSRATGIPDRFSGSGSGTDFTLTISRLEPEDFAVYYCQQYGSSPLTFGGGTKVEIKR
notes: also called AB12; naked antibody
On to B2, for which the Kd in experiment [1] came to 15.8 pM; in experiment [2], 19.1 pM; in experiment [4], 16 pM; in experiment [5], 14.8 pM; in experiment [7] it was 14.4 pM; in experiment [8], 14.6 pM.
